For experiment [1], the target named is T1, mCherry-U2AF35, Q01081.
T1 chain: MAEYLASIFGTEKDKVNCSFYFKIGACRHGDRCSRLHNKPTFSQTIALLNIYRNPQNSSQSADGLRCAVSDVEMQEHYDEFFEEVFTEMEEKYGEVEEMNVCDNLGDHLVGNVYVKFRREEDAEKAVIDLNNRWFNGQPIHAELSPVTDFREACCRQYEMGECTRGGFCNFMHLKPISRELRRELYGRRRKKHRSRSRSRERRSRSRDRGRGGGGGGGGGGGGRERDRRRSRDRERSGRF
Put plainly: single-molecule photobleaching step counting (TIRF microscopy); nuclear extract in splicing conditions, no exogenous pre-mRNA, ATP depleted (−ATP), in the presence of ribonuclease; diluted and applied to cover slips; labeled protein spots bleaching in one or two steps. The note with it: remark: other sources report otherwise.

In experiment [2] the target is T1, mCherry-U2AF35, Q01081. Nature of the experiment: single-molecule photobleaching step counting (TIRF microscopy); nuclear extract in splicing conditions, no exogenous pre-mRNA, with ATP (+ATP), in the presence of ribonuclease; diluted and applied to cover slips; labeled protein spots bleaching in one or two steps. The settings on record: remark: other sources report otherwise.

B1: mCherry-U2AF35, Q01081 1-240 (natural protein)
chain: T1 chain
B1: in the experiment with mCherry-U2AF35, Q01081 [1], the molecules bleaching in 1 step (of 2 versus 1 steps), −ATP worked out at 189 molecules and the molecules bleaching in 2 steps (of 2 versus 1 steps), −ATP was 33 molecules. Moreover, in the experiment with mCherry-U2AF35, Q01081 [2], the molecules bleaching in 1 step (of 2 versus 1 steps), +ATP came out at 218 molecules and the molecules bleaching in 2 steps (of 2 versus 1 steps), +ATP came out at 21 molecules.

Source of the values: publication PMC5389562.
